T1: human 4IgB7H3 extracellular domain, 6xHis (human, UniProt Q5ZPR3 29-461)
T1 construct: range 29-461; Made in house in Expi293F cells; 47.8 kDa used in the SPR calculation; also called analyte human 4IgB7H3
T1 sequence: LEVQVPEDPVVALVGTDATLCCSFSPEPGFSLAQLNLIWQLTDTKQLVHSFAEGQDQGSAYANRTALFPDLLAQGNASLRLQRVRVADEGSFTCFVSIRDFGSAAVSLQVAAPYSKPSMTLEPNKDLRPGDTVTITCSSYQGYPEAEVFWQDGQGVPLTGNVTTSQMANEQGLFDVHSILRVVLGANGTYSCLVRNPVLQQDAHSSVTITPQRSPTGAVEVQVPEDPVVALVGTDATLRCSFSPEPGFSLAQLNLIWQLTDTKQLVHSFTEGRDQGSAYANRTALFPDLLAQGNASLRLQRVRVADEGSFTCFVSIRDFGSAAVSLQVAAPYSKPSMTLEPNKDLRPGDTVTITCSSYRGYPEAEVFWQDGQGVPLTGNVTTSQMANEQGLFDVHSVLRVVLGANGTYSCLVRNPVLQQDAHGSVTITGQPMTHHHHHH

T2: Human B7-H3(4Ig), His Tag (human, UniProt Q5ZPR3 29-461)
T2 construct: Bought protein; also called recombinant human B7H3 antigen; human B7-H3 protein; not shown: His tag
T2 sequence (looked up): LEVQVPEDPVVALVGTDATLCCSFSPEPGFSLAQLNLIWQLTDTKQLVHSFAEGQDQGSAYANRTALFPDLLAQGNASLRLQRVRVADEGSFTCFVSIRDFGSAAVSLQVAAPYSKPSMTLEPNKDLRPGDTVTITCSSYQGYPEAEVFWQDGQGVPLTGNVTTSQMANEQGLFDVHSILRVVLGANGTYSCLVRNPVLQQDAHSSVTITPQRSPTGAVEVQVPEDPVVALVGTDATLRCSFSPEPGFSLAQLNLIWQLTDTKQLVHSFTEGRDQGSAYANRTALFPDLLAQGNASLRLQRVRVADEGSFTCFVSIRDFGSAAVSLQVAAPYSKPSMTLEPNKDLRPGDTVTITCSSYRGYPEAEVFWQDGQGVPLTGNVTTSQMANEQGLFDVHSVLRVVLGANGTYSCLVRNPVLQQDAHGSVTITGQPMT

B1: Enoblituzumab (MacroGenics) (antibody, V domains shown)
VH: EVQLVESGGGLVQPGGSLRLSCAASGFTFSSFGMHWVRQAPGKGLEWVAYISSDSSAIYYADTVKGRFTISRDNAKNSLYLQMNSLRDEDTAVYYCGRGRENIYYGSRLDYWGQGTTVTVSS
VL: DIQLTQSPSFLSASVGDRVTITCKASQNVDTNVAWYQQKPGKAPKALIYSASYRYSGVPSRFSGSGSGTDFTLTISSLQPEDFATYYCQQYNNYPFTFGQGTKLEIKR
B2: W301088-1.145.16-z3-p1-uIgG1KV320 (antibody, V domains shown)
VH: QVQLQESGPGLVKPSQTLSLTCTVTDYSITGDYAWNWIRQHPGKGLEWIGYISYSGSTSYNPSLQSRVTISRDTSKNQFSLKLSSVTAADTAVYFCARSLGRRWYFVVWGQGTTVTVSS
VL: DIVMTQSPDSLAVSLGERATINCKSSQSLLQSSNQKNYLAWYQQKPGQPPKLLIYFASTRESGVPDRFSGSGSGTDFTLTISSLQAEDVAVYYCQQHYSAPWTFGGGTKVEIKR
notes: Humanized, PTM-removed (VL N027dQ) human IgG1 LALA kappa antibody; also called WBP301088; W301088-z3-p1
B3: W301088-1.145.16-xIgG1KV320 (antibody, V domains shown)
VH: DVQLQESGPGLVKPSQSLSLTCTVTDYSITGDYAWNWIRQFPGNKLEWMGYISYSGSTSYNPSLQSRISITRDTSKNQFFLQLNSVTSEDTATYFCARSLGRRWYFVVWGAGTTVTVSA
VL: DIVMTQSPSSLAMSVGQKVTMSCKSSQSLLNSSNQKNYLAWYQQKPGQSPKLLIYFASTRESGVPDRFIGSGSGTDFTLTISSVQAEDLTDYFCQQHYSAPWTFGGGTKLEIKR

Key:
[1] = molecular target: T1, human 4IgB7H3 extracellular domain, …; assay: SPR (Biacore 8K), antibody captured on anti-human Fc IgG, human 4IgB7H3 as analyte, 1:1 model
Procedure: (§1) The affinity of antibodies for human 4IgB7H3 was determined using surface plasmon resonance (SPR). The affinity of antibodies for human 4IgB7H3 was determined by Biacore 8K. An activator was prepared by mixing 400 mM EDC and 100 mM NHS (GE) immediately prior to injection into the channel. The CMS sensor chip was activated for 420 seconds with the activator. Goat anti-human Fc IgG (30 μg/mL in 10 mM NaAc, pH 4.5) was then injected into the channel at a flow rate of 10 μL/min for 420 seconds. The chip was deactivated by 1 M ethanolamine hydrochloric acid. The antibodies diluted in running buffer (1×HBS-EP+) were injected into the channel at a flow rate of 10 μL/min for 30 seconds. […] Glycine (10 mM, pH 1.5) was injected as regeneration buffer after the dissociation phase.
The sensorgrams for the reference channel and the buffer channel were subtracted from the test sensorgrams. The experimental data were fitted with a 1:1 binding model. The molecular weight of the human 4IgB7H3 used in the calculation was 47.8 kDa.
(§2) The experimental data were fitted by a 1:1 binding model bundled with the Biacore 8K evaluation software.

[2] = molecular target: T3, Cynomolgus monkey B7-H3/CD276 protein, His tag (cynomolgus monkey); assay: SPR (Biacore 8K), antibody captured on anti-human Fc IgG, cynomolgus monkey B7H3 as analyte, 1:1 model
T3 construct: Bought protein; 49 kDa used in the SPR calculation; also called ACRO B73-C52Ha
Procedure: as §1, with “cynomolgus monkey B7H3” for “human 4IgB7H3”
The sensorgrams for the reference channel and the buffer channel were subtracted from the test sensorgrams. […] The molecular weight of the cynomolgus monkey B7H3 used in the calculation was 49 kDa.
as §2

[3] = molecular target: T2, Human B7-H3(4Ig), His Tag; assay: ELISA, plate coated with 2 µg/mL recombinant human B7-H3 (4Ig) His, serially diluted antibody, HRP anti-human secondary antibody, OD450
Procedure: A 96-well ELISA plate was coated with 2 μg/mL recombinant human B7H3 antigen (see the table above) at 30 μL/well and kept at 4° C. overnight. The following day, the well plate was washed 3 times with PBST and then blocked with 5% skim milk for 2 h. […] The plate was then washed 3 times with PBST, and an HRP-labeled anti-human secondary antibody diluted in a 1:5000 ratio was then added at 100 μL/well and incubated for 1 h. After the incubation was complete, the plate was washed six times with PBST, and TMB (SurModics, TMBS-1000-01) was added for color development. Based on the results of the color development, the reaction was stopped by adding 2M HCl, and the plate was read by a microplate reader (Molecular Devices, SpecterMax 190) at OD450.

Binder	Kd [1] [pM]	koff [1] [s⁻¹]	kon [1] [M⁻¹ s⁻¹]	Kd [2] [pM]	koff [2] [s⁻¹]	kon [2] [M⁻¹ s⁻¹]	EC50 (read off the curve) [3] [µg/mL]
B1	1020	0.000126	124000	441	8.14e-05	185000	–
B2	70.8	4.65e-05	657000	57.4	3.02e-05	527000	~0.2
B3	51.5	3.39e-05	657000	56.4	2.94e-05	521000	–

— patent publication US20240148892A1 (DUALITY BIOLOGICS SUZHOU, published 2024)
